For 1 molecule, Kd results are on record in publication PMC10866945 (2024).

For test [1], the target named is Spike protein NTD (Severe acute respiratory syndrome …, UniProt P0DTC2). Briefly: ELISA. In general terms: ELISA stands for enzyme-linked immunosorbent assay.
Test [2] has as its target Spike protein RBD (Severe acute respiratory syndrome …, UniProt P0DTC2). Kind of test: ELISA.

B1: Asialoglycoprotein receptor 1 (protein)
chain: MTKEYQDLQHLDNEESDHHQLRKGPPPPQPLLQRLCSGPRLLLLSLGLSLLLLVVVCVIGSQNSQLQEELRGLRETFSNFTASTEAQVKGLSTQGGNVGRKMKSLESQLEKQQKDLSEDHSSLLLHVKQFVSDLRSLSCQMAALQGNGSERTCCPVNWVEHERSCYWFSRSGKAWADADNYCRLEDAHLVVVTSWEEQKFVQHHIGPVNTWMGLHDQNGPWKWVDGTDYETGFKNWRPEQPDDWYGHGLGGGEDCAHFTDDGRWNDDVCQRPYRWVCETELDKASQEPPLL
One may read the Kd as the free concentration of one partner at which half of the binding sites on the other are occupied at equilibrium, for simple one-to-one binding. Take B1: the results for the Kd in test [1] and in test [2] were 179 nM and 269 nM, respectively.
